Experimental data as given in patent US20180092984A1 (Seagen, published 2018).
One block for each molecule: values may come before it.

Tests used:
human CD48 [1] = biological target: T1, human CD48 (human, UniProt P09326 27-220); assay: flow cytometry saturation binding on U-266 cells
T1 construct: whole, on cells; also called BLAST-1; SLAMF2
T1 sequence (looked up): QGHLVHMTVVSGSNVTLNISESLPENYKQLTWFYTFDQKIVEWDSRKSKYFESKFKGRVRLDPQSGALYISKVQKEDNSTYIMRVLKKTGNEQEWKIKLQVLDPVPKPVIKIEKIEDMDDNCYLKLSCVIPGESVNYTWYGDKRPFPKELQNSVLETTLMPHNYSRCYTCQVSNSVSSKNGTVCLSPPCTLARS
Method: (§1) After one hour incubation on ice, cells were washed twice with phosphate buffered saline containing 2% fetal bovine serum and 0.02% sodium azide. Fluorescence was detected on a LSRII flow cytometer and Kd values were determined using one-site binding (hyperbola) non-linear regression in GraphPad Prism.

human CD48 [2] = biological target: T1, human CD48; assay: flow cytometry saturation binding, Alexa Fluor-647 antibody on U-266 cells
Method: as §1

[3] = biological target: cynomolgus monkey CD48 (cynomolgus monkey); assay: flow cytometry saturation binding on CHO-DG44 cells expressing cynomolgus monkey CD48
human CD48 [4] = biological target: T1, human CD48; assay: flow cytometry saturation binding, U-266 cells against CHO-DG44 cynomolgus monkey CD48 cells
Method: as §1

[5] = biological target: cynomolgus monkey CD48 (cynomolgus monkey); assay: flow cytometry saturation binding, Alexa Fluor-647 antibody on CHO-DG44 cells expressing cynomolgus monkey CD48

fold lower Kd compared to mMEM102 (human CD48 [1]): > 4 fold | Kd (human CD48 [2]): 5.8 nM | fold lower Kd compared to mMEM102 [3]: > 4 fold | fold stronger binding affinity to human CD48 compared to cynomolgus monkey CD48 (human CD48 [4]): 6 fold | Kd [5]: 40.5 nM
Molecule: cMEM102 (antibody)

Kd (human CD48 [2]): 20.8 nM | fold stronger binding affinity to human CD48 compared to cynomolgus monkey CD48 (human CD48 [4]): 6 fold | Kd [5]: 165 nM
Molecule: mMEM102 (antibody)

fold lower Kd compared to mMEM102 (human CD48 [1]): > 4 fold | Kd (human CD48 [2]): 5 nM | fold lower Kd compared to mMEM102 [3]: > 4 fold | fold stronger binding affinity to human CD48 compared to cynomolgus monkey CD48 (human CD48 [4]): ~6 fold | Kd [5]: 31.1 nM
B1: hMEM102-HALA (antibody, V domains shown)
VH: QVQLVQSGSELKKPGASVKVSCKASGYTFTDFGMNWVRQAPGQGLEWMGWINTFTGEPSYGNVFKGRFVFSLDTSVSTAYLQISSLKAEDTAVYYCARRHGNGNVFDSWGQGTLVTVSS
VL: EIVLTQSPDFQSVTPKEKVTITCRASQSIGSNIHWYQQKPDQSPKLLIKYTSESISGVPSRFSGSGSGTDFTLTINSLEAEDAATYYCQQSNSWPLTFGGGTKVEIKR
notes: also called humanized MEM102 antibody; humanized MEM102-HALA antibody
